In PMC10844294 one finds stoichiometry N data, which are given here for one substance.

The assay addresses B.1.1.529 (BA.1) S1 + S2 trimer-His Recombinant Protein (SARS-CoV-2) (UniProt P0DTC2). Description: cryo-EM structure.

As to “B.1.1.529 (BA.1) S1 + S2 trimer-His Recombinant Protein (from UniProt P0DTC2 324-533) (natural protein)”, the stoichiometry N came to 3.

A word on the stoichiometry N: it is the number of molecules, sites or subunits per partner or assembly.
